The assay has as its target protein A/G. In words: SPR; real-time, microfluidic cell on the nanostructured gold film, white light and CCD detector, 0.1 Hz; protein A/G (0.5 mg/mL, 1 h, 30 uL/min) immobilised, flushed with PBS; IgG 10 ug/mL injected at 30 uL/min; 10 mM PBS. In general terms: SPR reads the build-up and loss of mass on a sensor chip optically.

As to IgG (antibody), the resonance peak shift at 10 ug/mL IgG worked out at 2 nm.

(Values after publication PMC4829874.)
